Results published in paper PMC10397247.
Each block holds one binder with its values, some of them ahead of it.

Tests used:
4H497-AA = target: T1, 4H497-AA; assay: two-hybrid library CCmax; conditions: mean of both orientations;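 note: natural log of median RNA to DNA barcode read ratio; higher means stronger binding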
T1 chain: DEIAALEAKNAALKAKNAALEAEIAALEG

4H2948-AA = target: T2, 4H2948-AA; assay: two-hybrid library CCmax; conditions: mean of both orientations;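 note: natural log of median RNA to DNA barcode read ratio; higher means stronger binding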
T2 chain: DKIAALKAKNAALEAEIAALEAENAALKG

4H3591-AA = target: T3, 4H3591-AA; assay: two-hybrid library CCmax; conditions: mean of both orientations;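 note: natural log of median RNA to DNA barcode read ratio; higher means stronger binding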
T3 chain: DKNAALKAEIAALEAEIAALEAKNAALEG

4H3628-AA = target: T4, 4H3628-AA; assay: two-hybrid library CCmax;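 note: natural log of median RNA to DNA barcode read ratio; higher means stronger binding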
T4 chain: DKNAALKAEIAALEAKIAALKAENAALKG

4H3666-AA = target: T5, 4H3666-AA; assay: two-hybrid library CCmax; conditions: mean of both orientations;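 note: natural log of median RNA to DNA barcode read ratio; higher means stronger binding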
T5 chain: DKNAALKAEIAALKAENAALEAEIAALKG

4H391-AA = target: T6, 4H391-AA; assay: two-hybrid library CCmax; conditions: mean of both orientations;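 note: natural log of median RNA to DNA barcode read ratio; higher means stronger binding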
T6 chain: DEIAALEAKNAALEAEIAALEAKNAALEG

4H656-AA = target: T7, 4H656-AA; assay: two-hybrid library CCmax; conditions: mean of both orientations
T7 chain: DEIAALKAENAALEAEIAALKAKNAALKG

4H3417-AA = target: T8, 4H3417-AA; assay: two-hybrid library CCmax; conditions: mean of both orientations
T8 chain: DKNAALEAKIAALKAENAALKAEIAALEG

4H2991-AA = target: T9, 4H2991-AA; assay: two-hybrid library CCmax
T9 chain: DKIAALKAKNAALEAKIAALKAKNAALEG

4H3939-AA = target: T10, 4H3939-AA; assay: two-hybrid library CCmax; conditions: mean of both orientations
T10 chain: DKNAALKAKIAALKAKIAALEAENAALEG

4H3446-AA = target: T11, 4H3446-AA; assay: two-hybrid library CCmax; conditions: mean of both orientations
T11 chain: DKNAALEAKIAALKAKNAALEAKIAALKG

4H3066-AA = target: T12, 4H3066-AA; assay: two-hybrid library CCmax; conditions: mean of both orientations
T12 chain: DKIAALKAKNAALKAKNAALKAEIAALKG

4H3920-AA = target: T13, 4H3920-AA; assay: two-hybrid library CCmax; conditions: mean of both orientations
T13 chain: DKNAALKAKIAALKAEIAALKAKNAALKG

4H675-AA = target: T14, 4H675-AA; assay: two-hybrid library CCmax; conditions: mean of both orientations
T14 chain: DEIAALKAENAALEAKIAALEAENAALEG

4H3121-AA = target: T15, 4H3121-AA; assay: two-hybrid library CCmax; conditions: mean of both orientations
T15 chain: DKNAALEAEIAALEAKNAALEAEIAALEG

4H2742-AA = target: T16, 4H2742-AA; assay: two-hybrid library CCmax
T16 chain: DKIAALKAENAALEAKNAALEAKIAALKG

4H3102-AA = target: T17, 4H3102-AA; assay: two-hybrid library CCmax; conditions: mean of both orientations
T17 chain: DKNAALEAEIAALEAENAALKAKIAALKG

4H428-AA = target: T18, 4H428-AA; assay: two-hybrid library CCmax; conditions: mean of both orientations
T18 chain: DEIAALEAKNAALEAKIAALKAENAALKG

4H971-AA = target: T19, 4H971-AA; assay: two-hybrid library CCmax; conditions: mean of both orientations
T19 chain: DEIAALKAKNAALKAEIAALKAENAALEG

4H3709-AA = target: T20, 4H3709-AA; assay: two-hybrid library CCmax; conditions: mean of both orientations
T20 chain: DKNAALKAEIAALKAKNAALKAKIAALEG

4H478-AA = target: T21, 4H478-AA; assay: two-hybrid library CCmax; conditions: mean of both orientations
T21 chain: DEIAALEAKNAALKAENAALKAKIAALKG

4H3029-AA = target: T22, 4H3029-AA; assay: two-hybrid library CCmax; conditions: mean of both orientations
T22 chain: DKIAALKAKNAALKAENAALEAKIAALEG

4H477-bA = target: T23, 4H477-bA; assay: two-hybrid library CCNG1
T23 chain: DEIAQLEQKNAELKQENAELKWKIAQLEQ

4H492-bA = target: T24, 4H492-bA; assay: two-hybrid library CCNG1
T24 chain: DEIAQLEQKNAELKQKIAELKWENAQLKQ

4H40-bA = target: T25, 4H40-bA; assay: two-hybrid library CCNG1
T25 chain: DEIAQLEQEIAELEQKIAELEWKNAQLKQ

4H741-bA = target: T26, 4H741-bA; assay: two-hybrid library CCNG1
T26 chain: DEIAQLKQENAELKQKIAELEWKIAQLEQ

4H348-bA = target: T27, 4H348-bA; assay: two-hybrid library CCNG1
T27 chain: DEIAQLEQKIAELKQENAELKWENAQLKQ

4H3277-bA = target: T28, 4H3277-bA; assay: two-hybrid library CCNG1
T28 chain: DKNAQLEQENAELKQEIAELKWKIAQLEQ

4H319-bA = target: T29, 4H319-bA; assay: two-hybrid library CCNG1
T29 chain: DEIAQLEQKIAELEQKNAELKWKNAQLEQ

O7-bA = target: T30, O7-bA; assay: two-hybrid library CCNG1
T30 chain: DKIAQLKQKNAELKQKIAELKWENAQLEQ

O9-bA = target: T31, O9-bA; assay: two-hybrid library CCNG1
T31 chain: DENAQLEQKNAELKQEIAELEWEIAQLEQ

O8-bA = target: T32, O8-bA; assay: two-hybrid library CCNG1
T32 chain: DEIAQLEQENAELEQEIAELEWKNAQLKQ

Binder: DKIAALKAENAALEAKNAALEAKIAALKG [4H2742-AA]
interaction score (4H497-AA): 2.42
interaction score (4H2948-AA): -0.899
interaction score (4H3591-AA): -0.99
interaction score (4H3628-AA): -1.49
interaction score (4H3666-AA): -1.97
interaction score (4H391-AA): -1.21
interaction score (4H656-AA): -2
interaction score (4H3417-AA): -1.41
interaction score (4H2991-AA): -0.693
interaction score (4H3939-AA): -1.63
interaction score (4H3446-AA): -1.39
interaction score (4H3066-AA): 1.72
interaction score (4H3920-AA): -1.23
interaction score (4H675-AA): -1.53
interaction score (4H3121-AA): -1.7
interaction score (4H2742-AA): -0.3
interaction score (4H3102-AA): -1.33
interaction score (4H428-AA): -1.6
interaction score (4H971-AA): -1.91
interaction score (4H3709-AA): -1.19
interaction score (4H478-AA): 1.12
interaction score (4H3029-AA): 0.775

Binder: DENAQLEQEIAELEQKNAELKWEIAQLEQ [O5-bA]
interaction score (O7-bA): -0.303
interaction score (O9-bA): -0.954
interaction score (O8-bA): -0.893

Further lines, results first:

interaction score (4H477-bA): -0.399
interaction score (4H492-bA): -1.05
interaction score (4H40-bA): -0.44
interaction score (4H741-bA): -0.873
interaction score (4H348-bA): -0.881
interaction score (4H3277-bA): -0.964
interaction score (4H319-bA): -0.125
Binder: DEIAQLEQKIAELEQKNAELKWKNAQLEQ [4H319-bA]

interaction score (O7-bA): -1.12
interaction score (O9-bA): -0.962
interaction score (O8-bA): 2.08
Binder: DKIAQLKQKNAELKQKIAELKWENAQLEQ [O7-bA]
